Values of other authors, collected in PMC10130511.
pKd: −log10 of the molar value. Like-named read-outs stand apart in the source and are kept apart here. Blank lines part the entries; values can stand above or below the substance they belong to.

Legend:
[1] = biological target: IP3R (UniProt P29994)
[2] = biological target: IP3R (UniProt P29994); remark: listed apart in the source
[3] = biological target: IP3R (UniProt P29994); remark: listed apart in the source

Sequence of UniProt P29994 (P29994 whole entry): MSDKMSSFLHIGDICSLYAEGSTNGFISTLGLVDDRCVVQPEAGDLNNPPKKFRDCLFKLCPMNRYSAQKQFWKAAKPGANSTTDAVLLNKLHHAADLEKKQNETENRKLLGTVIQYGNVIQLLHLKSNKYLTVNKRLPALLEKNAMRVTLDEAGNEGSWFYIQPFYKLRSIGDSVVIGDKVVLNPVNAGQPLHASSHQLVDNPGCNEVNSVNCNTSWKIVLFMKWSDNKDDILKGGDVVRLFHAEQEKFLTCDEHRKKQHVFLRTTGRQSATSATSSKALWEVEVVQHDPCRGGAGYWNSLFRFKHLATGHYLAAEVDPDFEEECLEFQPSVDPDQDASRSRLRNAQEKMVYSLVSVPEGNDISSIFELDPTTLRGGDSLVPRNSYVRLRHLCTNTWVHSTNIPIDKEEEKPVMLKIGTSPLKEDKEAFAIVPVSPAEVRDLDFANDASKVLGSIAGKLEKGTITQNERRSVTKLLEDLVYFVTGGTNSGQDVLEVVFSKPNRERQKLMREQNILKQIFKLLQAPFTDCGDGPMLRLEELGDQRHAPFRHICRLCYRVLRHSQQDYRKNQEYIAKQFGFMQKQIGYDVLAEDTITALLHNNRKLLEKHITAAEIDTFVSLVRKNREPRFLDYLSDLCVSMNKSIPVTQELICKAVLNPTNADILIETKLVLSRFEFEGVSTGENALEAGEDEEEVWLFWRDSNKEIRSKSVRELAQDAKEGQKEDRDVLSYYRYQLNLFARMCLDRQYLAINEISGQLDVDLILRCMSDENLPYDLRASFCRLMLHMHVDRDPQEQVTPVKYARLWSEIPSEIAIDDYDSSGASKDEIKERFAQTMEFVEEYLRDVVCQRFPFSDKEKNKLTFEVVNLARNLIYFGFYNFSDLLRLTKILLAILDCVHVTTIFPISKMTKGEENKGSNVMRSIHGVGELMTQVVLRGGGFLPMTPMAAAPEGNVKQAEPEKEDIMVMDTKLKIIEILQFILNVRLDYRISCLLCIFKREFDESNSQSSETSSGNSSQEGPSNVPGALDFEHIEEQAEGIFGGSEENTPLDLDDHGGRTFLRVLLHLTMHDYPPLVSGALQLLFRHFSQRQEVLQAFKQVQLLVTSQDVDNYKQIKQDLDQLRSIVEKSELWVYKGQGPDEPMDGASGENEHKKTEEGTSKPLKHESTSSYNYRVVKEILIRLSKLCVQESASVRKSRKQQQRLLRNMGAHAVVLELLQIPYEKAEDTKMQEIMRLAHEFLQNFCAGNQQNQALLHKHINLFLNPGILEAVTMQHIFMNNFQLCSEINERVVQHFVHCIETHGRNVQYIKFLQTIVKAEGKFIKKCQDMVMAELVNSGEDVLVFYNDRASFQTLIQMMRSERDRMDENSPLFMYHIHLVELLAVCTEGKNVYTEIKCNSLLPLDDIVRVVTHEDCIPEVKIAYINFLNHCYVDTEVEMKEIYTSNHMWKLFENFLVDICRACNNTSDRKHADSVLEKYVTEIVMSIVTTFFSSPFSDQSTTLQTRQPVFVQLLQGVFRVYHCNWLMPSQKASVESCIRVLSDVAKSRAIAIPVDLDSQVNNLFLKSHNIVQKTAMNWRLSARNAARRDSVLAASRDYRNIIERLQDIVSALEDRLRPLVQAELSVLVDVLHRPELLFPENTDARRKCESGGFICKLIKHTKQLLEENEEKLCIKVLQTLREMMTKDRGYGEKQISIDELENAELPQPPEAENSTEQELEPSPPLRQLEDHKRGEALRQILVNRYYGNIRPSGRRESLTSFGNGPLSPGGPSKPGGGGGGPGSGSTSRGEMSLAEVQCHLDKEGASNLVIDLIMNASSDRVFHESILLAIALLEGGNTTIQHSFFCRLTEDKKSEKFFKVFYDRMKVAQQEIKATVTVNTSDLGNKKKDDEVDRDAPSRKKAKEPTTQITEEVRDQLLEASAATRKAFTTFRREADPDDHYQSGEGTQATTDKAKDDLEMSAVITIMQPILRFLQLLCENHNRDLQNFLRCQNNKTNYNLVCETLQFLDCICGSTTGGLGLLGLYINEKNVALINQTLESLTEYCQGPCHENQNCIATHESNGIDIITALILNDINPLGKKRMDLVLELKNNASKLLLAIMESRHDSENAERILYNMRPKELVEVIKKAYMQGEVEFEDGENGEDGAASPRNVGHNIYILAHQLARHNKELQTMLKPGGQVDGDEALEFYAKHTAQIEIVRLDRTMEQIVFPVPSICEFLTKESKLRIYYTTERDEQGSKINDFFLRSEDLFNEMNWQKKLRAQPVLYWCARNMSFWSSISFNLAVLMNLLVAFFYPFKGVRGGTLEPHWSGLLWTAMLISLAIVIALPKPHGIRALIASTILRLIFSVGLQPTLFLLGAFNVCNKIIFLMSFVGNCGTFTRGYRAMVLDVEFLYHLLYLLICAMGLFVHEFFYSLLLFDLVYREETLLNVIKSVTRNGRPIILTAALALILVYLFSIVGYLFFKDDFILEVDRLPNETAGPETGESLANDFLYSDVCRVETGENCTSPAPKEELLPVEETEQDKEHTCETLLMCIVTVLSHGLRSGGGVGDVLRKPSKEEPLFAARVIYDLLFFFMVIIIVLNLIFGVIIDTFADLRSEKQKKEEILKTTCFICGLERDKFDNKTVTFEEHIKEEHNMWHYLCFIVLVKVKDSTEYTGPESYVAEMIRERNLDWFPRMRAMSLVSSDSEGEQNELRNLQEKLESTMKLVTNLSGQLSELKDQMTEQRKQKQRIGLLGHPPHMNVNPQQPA

- pKd [1]: 6.00
Substance: Bcl-2 (from UniProt P10415)

- pKd [2]: 6.15
Substance: Bcl-xL (from UniProt Q07817)

- pKd [3]: 7.19
Substance: Bok (from UniProt Q9UMX3)
